This note sets out measurements from the DeepSol protein solubility set.

A short description of the series: soluble on expression in E. coli; label from the status in PepcDB or PDB records.
As to “MADEVTIGFRFYPTEEELVSFYLRNQLEGRSDDSMHRVIPVLDVFEVEPSHLPNVAGVRCRGDAEQWFFFVPRQEREARGGRPSRTTGSGYWKATGSPGPVFSKDNKMIGAKKTMVFYTGKAPTGRKTKWKMNEYHAVDETVNASTIPKLRREFSLCRVYITTGSSRAFDRRPEGVLQTERMLTSDVAVAETSFRVESSLETSISGGEHIDVSMNTEFVDGLSEPMWDWEQLTWP”, the “soluble on expression in E. coli” value is listed as “soluble”.

Consider “MNLKREQEFVSQYHFDARNFEWENENGAPETKVDVNFQLLQHDQENQVTSLIVILSFMIVFDKFVISGTISQVNHIDGRIVNEPSELNQEEVETLARPCLNMLNRLTYEVTEIALDLPGINLEF”, for which the “soluble on expression in E. coli” value is “soluble”.

Take “VIIPDINLLLYAVITGFPQHRRAHAWWQDTVNGHTRIGLTYPALFGFLRIATSARVLAAPLPTADAIAYVREWLSQPNVDLLTAGPRHLDIALGLLDKLGTASHLTTDVQLAAYGIEYDAEIHSSDTDFARFADLKWTDPLRE”: the “soluble on expression in E. coli” value is listed as “not soluble”.

As to “MGSDKIHHHHHHMYDAQAVQTLSSCLLRLKEGKGIGTLVSEDEADLPKVMTRLKQFDPSKNGLSINEIVHLANALIGEHMSATTIQNWTKREVRDIIGVPHRGKKYSINQAAIIYLLDDLKHLFSLEETRELLTIVFKNPNIDEDDLISPLDFYLVYTQHAETSGPIELTEKRLRRSLERINAYRPETVHVLQLCLYARRISHLTHEAKQRLQHVLQT”, the “soluble on expression in E. coli” value was “not soluble”.

With “MDHHSKAKELLQQRDELDGKIKELMLVLETNNSTMDSPLLDAEGYPLNTIDVYAVRHARHDLICLRNDRAALTEKIVVEMENENKEVSGQTATSEEKPVHRTSNEPFVKISSVVELSPADIGGFRKDDLIIQYGNLHHGNFNDMQEVAQITKQSEDKIIRVTVIRENRPVRLEICPKKWSGPGLLGCNIVPISGANV”, the “soluble on expression in E. coli” value is “not soluble”.

On to “GPGSMTHDSRTPQGKSRVSGGSSCFPSGYLNNESFDLNSETDHVSANSSTCHPAESYHLLLPRELQTPAQHFTTPEIPEISSHSPLCSALFSSVTEMQHQSVLEVGVASDQGIRSSMEDEHVTVVEPEVCFFGIYDGHGGRQCAEYVRARLHEITLAHECLKTDPRKAISDAFAQVEREFLGQNTNDMSSAGCVCAAAVVQGSVLTVGNVGDCEVVLARAGQPVLLTVKHNPSCNDAEATRVKKAGGCIFNCRVGHPRFNPRMCSLAVSRAVGDAGFKLEEYTNGKPSGIIAVADTSEVLLAKDDEFLILACDGLWDTMSYAEAVELATAYMASGADANSVADQLVGEALRRGTRDNVTAIFVRLGGSAQAGLGDANK”, for which the “soluble on expression in E. coli” value was “not soluble”.

Regarding “MRVSLYVVVGGFALLTGCQTLDNHQVTKPEAQTVTTENTVPQYYLATEPESAQVTDVWERIRQGMQLPVPDKKLVNYYRDWYINNPKHLEVISERAAPYMYLIVEELEKRHLPIEIALLPIIESAFDPSASSASAASGLWQFTTPMASHFGLEMNWWYDGRRDVPASTTAALDMLEYLYNKTNNNWLYAIAAYNTGESKVLNAIKRNEDKGLKTDFWSLDLPKETKRYVPQLLALAEVIKHADEYGITLAPINNSPSIEVVDIDSQIDLAMAAGLANMTTTELAKLNPGYNRWATSPLGPHTLVLPIDKSEEFKKALAETESEARVSWLRYTIKSGDSIGSIAQKHHTTVNAIRAANGMKSNNIVAGRHLIIPVSADDKQLYALSTSQKLPKKAAGATSGNKLTYQVKSGDSLWQIAQAHNVSVKQLTAWNHLSKDSKLQTGQKLTIVAPQEKLDSEHIRTVSYKVKSGDSLAQIASKFKVTVAELLEWNSLTPSQYILPGQVLKLVVDESNLNALEHHHHHH”, the “soluble on expression in E. coli” value is reported as “not soluble”.

For “MKYKRVLLKLSGEFLTRNGFGIEPEATQALAREIKAAYDTGVQLAIVIGAGNLWRGARQGVGMDRATADYIGMLATIMNALALQDALESLGVPTRVQTALTITQVAEPYIRRRALRHLEKERIVIFGGGTGNPFFSTDTAAALRALEVGAEVVLMAKNKVDGVYSDDPRKNPEAVRFDELTYLEVLNRGLQVMDTTAITLCMEAGLPIVVFDIFKPGALVGIIQGEKVGTLIH”, the “soluble on expression in E. coli” value is given as “soluble”.

Turning to “MGSDKIHHHHHHMSEKNQQSADLMARQYFLHLGAHRTGSSSFQLCLHENRAALANAGYGVAFPARDGIRAGQLALRLPQPRHDAEAETRMAETARQHLTQDIAPAPDQKVLLSEENILGSMSHFQQALFYPASAKRLRALRQAMEGPAAAVLLVVRDYGPFFRSCIRKRMEETIVTDFEGAVSAYLAMDRGWLEVLREVRDILEPAKLIVARHEDRPKRVDLLRELAPDLAQVALMQPSTSLNISATDRALSALQARYATGEKLSRKAWRATLAEWRDDATPMGLTEFTPRELRAFSMRYERDLSDIAKEPGLTLI”, the “soluble on expression in E. coli” value is listed as “not soluble”.

On to “MGGSHHHHHHGMASMTGGQQMGRTLYDDDDKDRWGSMNYVIIGGDAAGMSAAMQIVRNDENANVVTLEKGEIYSYAQCGLPYVISGAIASTEKLIARNVKTFRDKYGIDAKVRHEVTKVDTEKKIVYAEHTKTKDVFEFSYDRLLIATGVRPVMPEWEGRDLQGVHLLKTIPDAERILKTLETNKVEDVTIIGGGAIGLEMAETFVELGKKVRMIERNDHIGTIYDGDMAEYIYKEADKHHIEILTNENVKAFKGNERVEAVETDKGTYKADLVLVSVGVKPNTDFLEGTNIRTNHKGAIEVNAYMQTNVQDVYAAGDCATHYHVIKEIHDHIPIGTTANKQGRLAGLNMLDKRRAFKGTLGTGIIKFMNLTLARTGLNEKEAKGLHIPYKTVKVDSTNMAGYYPNAKPLYLKLLYRSDTKQLLGGQVIGEEGVDKRIDVIAMALFNKMSIHDLEDVDLSYAPPYNSVWDPIQQAARRAE”, for which the “soluble on expression in E. coli” value was “soluble”.

“MGSDKIHHHHHHVKQQRKEIQVLDRLNQAMEYIERHLDQRIEGAELAQIAATSEYHMRRLFSALAGMPLSEYIRRRRLTVAGAEVLAGDRTLLDIAVRYGYGSAEAFARAFRAMHGVGPGEARRTGAPLRSQPRMSFRLVVEGSTDMRYRIVEKDAFQVVGKKARVPLVYEGPNPAIVEFVRSIDPGTLQRLAELSDQEPRGVVAAVANIAGERVSAPEGTELDYYHGVVTSAPAPEDMAVLPVAAGLWAVFEVEGEAPYAIQYLWRDVFTQWFPANPYQSVPGPELLRTTMSQDGAYVEAELWVPVERVER”: the “soluble on expression in E. coli” value is on record as “not soluble”.

As for “MTSDTIRQTLDELLLDKNGGSSNEARAFFLSQIIDQLKLISSQTDAERQLQKLQLKDPNDNIVKATPPPPPPPPPLISILQQAPPPPPPPPPPTLKAPPPPPILGLKTPSKSLKTPTPRPKECPTSFLPKKEKKTKTRTVQWSKINASVVQDDSVWGKLAKASNVDIDFDLLDNFFGIESLAVSGAAEVVKVGILRALGKNYKKISKKIFNPKKHFFFLLKISNSLNFQKSTRKDAHVELLTAKRSQNVAIMLKQFKNIDELIDDVSQNKPVAEIDALQNLFGMLPQSEEEEALRRYTGDISLLSPPSSFFYRLVQIQFYRLRIETQIFLSDFSRLMRELAPNVEILIRTSQEILTSPTLPRLLLIFVNMGNYLNGNNSQGNAFGFTLNSLWKLIDLKGNKQEFSLLHLLVTCEPDLVAHLQEELSTLKDASQISFDEIKISLKTLRDGRCKLEKQLETCSGASFTQFLELIKIDCKFELDEFGANYDKLTELQYQLADYFCENRNTFQLDECLKIFNFLMNRLQQTLKEHVTRETRKLKKEEKKETQTTRECEKTMKKPEKIDLFDALTASNGGPESPRKRAAGILDMRQKLGNVRIRKLRDVTTLESSFTPPPPPPLESPTDSTSSKENESVKPAKTSTNYEMCNDLESYITSLTRKRASHLPKAPPKEEPKLPEVLPEKSKIALKIEKIPEKIDKPPLPQAAPIIPKLPQKSIKAPSTVTTRSKVPPPTAAAAVRIVSVTTTTTPTKTAELRKPGARSPKTTVATVPKVTVVPVSRVPVAPSTPLSRRMSAPVVRKPTMTAEKKREITMKPSVSTSARPSLINTSSHPMVRSPLPKMSVLEKPKPLRITRPTVIPQSPTVTSSARPSGLRQPAKPKWV”, the “soluble on expression in E. coli” value was “not soluble”.

Regarding “MDTVNNYRVLEHKAAGHDGTLTDGDGLLIFKPAFPQELEFYKAIQVRDVSRRKSSADGDAPLCSWMPTYLGVLNEGAKIEQSGDAALLKIDERLSDSTDNLDSIPVKSEKSKQYLVLENLLYGFSKPNILDIKLGKTLYDSKASLEKRERMKRVSETTTSGSLGFRICGMKIQKNPSVLNQLSLEYYEEEADSDYIFINKLYGRSRTDQNVSDAIELYFNNPHLSDARKHQLKKTFLKRLQLFYNTMLEEEVRMISSSLLFIYEGDPERWELLNDVDKLMRDDFIDDDDDDDDNDDDDDDDAEGSSEGPKDKKTTGSLSSMSLIDFAHSEITPGKGYDENVIEGVETLLDIFMKFLEHHHHHH”, the “soluble on expression in E. coli” value is given as “soluble”.

“MEAEELTVGRVHHGHNIRRFRIEKNMNQEVLSQLVHLSQSAVSKYEQMRVIDDEMLHRFSRALGVPFEYLKSLEEDAQTVVFENNTVNNNDQASANIGGYVEENNRVNNYNPIEKITELYERLLKEKDEKYAALERRLQNIEQSLQK”: the “soluble on expression in E. coli” value is reported as “not soluble”.

Take “MSLDTDRILRAFASLVQATLRTNYFVTRQGSARCRDVLALKLNAQLIDELPLPRPRYEIFVYSPRVEGVHLRFGPVARGGLRWSDRRDDFRTEILGLVKAQAVKNAVIVPVGAKGGFVVKRPPLPTGDPAADRDATRAEGVACYQLFISGLLDVTDNVDHATASVNPPPEVVRRDGDDAYLVVAADKGTATFSDIANDVAKSYGFWLGDAFASGGSVGYDHKAMGITARGAWEAVKRHFREIGIDTQTQDFTVVGIGDMSGDVFGNGMLLSKHIRLIAAFDHRHIFLDPNPDAAVSWAERRRMFELPRSSWSDYDRSLISEGGGVYSREQKAIPLSAQVRAVLGIDGSVDGGAAEMAPPNLIRAILRAPVDLLFNGGIGTYIKAESESDADVGDRANDPVRVNANQVRAKVIGEGGNLGVTALGRVEFDLSGGRINTDALDNSAGVDCSDHEVNIKILIDSLVSAGTVKADERTQLLESMTDEVAQLVLADNEDQNDLMGTSRANAASLLPVHAMQIKYLVAERGVNRELEALPSEKEIARRSEAGIGLTSPELATLMAHVKLGLKEEVLATELPDQDVFASRLPRYFPTALRERFTPEIRSHQLRREIVTTMLINDLVDTAGITYAFRIAEDVGVTPIDAVRTYVATDAIFGVGHIWRRIRAANLPIALSDRLTLDTREGHHHHHH”: the “soluble on expression in E. coli” value is listed as “not soluble”.

For the sequence “MEMKGINNIRIDDRLIHGQVATMWSNKLGVTRLMVVNDNVAKNDLQKQVLRMAVPAGISSSIITEETAISNIKNGKYEGQNVLMIVKSPVDLLPFIENDLEIKRINVGNMSNRNNTTVLRPNISVTDEERSAFEKLLSRDIEITTIMTPDDKKTFLKDIL”, the “soluble on expression in E. coli” value is recorded as “not soluble”.
